Results as given in the supplement of paper PMC9170038.

Tested on: MS2 coat protein
Experiment: apparent KD of MS2 coat protein; designed switch direction (-1 OFF switch, 1 ON switch): 1; higher = weaker reporter binding
Outline: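 Designed RNA switches with common flanks were made on Illumina chips by stalled E. coli RNA polymerase. Titration with SNAP-549-labelled MS2 coat protein doubled from 0.7 or 1.5 nM up to 3 µM. Apparent KD is each design's median over clusters after curve-fitting normalised fluorescence.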

[1] = input ligand: microRNA oligo, concentration not stated
[2] = Eterna round: R95, input ligand: FMN 200 uM
[3] = Eterna round: R95, input ligand: microRNA oligo, concentration not stated
[4] = Eterna round: R95, input ligand: none

Sequence | apparent KD of MS2 coat protein (input ligand: FMN 200 uM) | apparent KD of MS2 coat protein [1] | apparent KD of MS2 coat protein (input ligand: none) | apparent KD of MS2 coat protein [2] | apparent KD of MS2 coat protein [3] | apparent KD of MS2 coat protein [4]
UUACUCAUGUAAGGAUAUGCAGCCGAAACGGCUGCAGAAGGUACUAUAAUACAUGAGGAUCACCCAUGUCUUUUUAAUUUUUAC [Mat - Same State NG 1 - JL mod - D70] (Eterna round: R96, puzzle: Same State NG 1) | 47.5 nM | 37 nM | 44.1 nM |  |  | 
AAAGCCCGUGCUAAGGAUAUGCGUACUCCUACAUGAGGAUCACCCAUGUCCCGCCGAAAAGGAAGGCAGAAGGUAGCACGAGCAA [Teerarti] (puzzle: Same State 2) |  |  |  | 53.7 nM | 96.5 nM | 102 nM
GUGGUCAGACAUGAGGAUCACCCAUGUGGAAUAAAUAACGUACAGGAUAUGGAAUAUAGGAUAUACUAGAAGGGUAGAUUGGUG (Eterna round: R96, puzzle: Same State NG 3) | 110 nM | 75.3 nM | 87.7 nM |  |  | 
AAGCCUAAACGGCGAAAACGACAUGAGGAUCACCCAUGUACACAGGAUAUCAGCCUGCUACAGGCUGAGAAGGGUGAACCUAAA [Maisveon] (Eterna round: R96, puzzle: Same State NG 3) | 797 nM | 63.8 nM | 113 nM |  |  | 
UGGAUCUAGGCUUGCCUGGGUCCAUGUUGACAUGAGGAUCACCCAUGUGUAUUUUUUAAGCUUUUUGUUUGUCAACU [JL A Humble Attempt mod 9] (puzzle: Sensor for hsa-mir-208a) |  |  |  | 28.3 nM | 12.5 nM | 29.3 nM
GGUCCAGCCUGAGCUGGACAAAAGCAUGUACAUGAGGAUCACCCAUGUCAUGUACAAGCUUUUUGCUCGUCAUAAAU [Mat - hsa-mir-208a - 96] (Eterna round: R96, puzzle: Sensor for hsa-mir-208a) | 573 nM | 16.3 nM | 435 nM |  |  | 
AGGACGAGCACAGGAUAUCCACGGAAAAGACGCGGAGAAGGGUGAAGUCAUGGAAAGAAAAGACAUGAGGAUCACCCAUGUAAA [Dibema] (Eterna round: R96, puzzle: Same State NG 1) | 26.2 nM | 20.5 nM | 28.4 nM |  |  | 
CGUCCGGCCUGUGCUGGCCGGUUGCUUGUACAUGAGGAUCACCCAUGUUCUUGUGCAGGCUUUUUGCUCGUCUUGUG [salish99_mir208a_018] (puzzle: Sensor for hsa-mir-208a) |  |  |  | 212 nM | 25 nM | 265 nM
CUGAGCAAGCAAGGAUAUCACGUCGUUUAGACGUGAGAAGGUGCUCCUUACAUGAGGAUCACCCAUGUAUAACAUGAAGCUCAG [SSNG1/10-A3] (Eterna round: R96, puzzle: Same State NG 1) | 150 nM | 273 nM | 870 nM |  |  | 
GGCCUCUGUCAAGGAUAUGCUACCGUUUCGGUAGCAGAAGGUGAUCACAUGAGGAUCACCCAUGUUUAGGCCCUCUGGCCCGCC (Eterna round: R96, puzzle: Same State NG 1) | 114 nM | 330 nM | 138 nM |  |  | 
CCAAAGUACAAUUUAGAUCUACAUGAGGAUCACCCAUGUACUGAGGAUAUCAGCUCGUUUAGAGCUGAGAAGGCAGAAUUAAUU [SSNG3/4-A3] (Eterna round: R96, puzzle: Same State NG 3) | 135 nM | 111 nM | 224 nM |  |  | 
UGAAUGAUGAUAGGAUAUACAUGAGGAAUCCUCGUAGAAGGAUCAUGACAUGAGGAUCACCCAUGUAGCGCUCCGUAGAGCGCA [JL SSNG1 1.20] (Eterna round: R96, puzzle: Same State NG 1) | 561 nM | 30.7 nM | 151 nM |  |  | 
GCCGGCUGGUGAGGAUAUGGCGCCUUGUUGGUGCCAGAAGGCAUGUCUUUUGACAUGAGGAUCACCCAUGUGUUGUCGUUGGCG [salish99_SSNG1_r04_613] (Eterna round: R96, puzzle: Same State NG 1) | 221 nM | 72.3 nM | 47.8 nM |  |  | 
GACAGGCAGGCUUUUUCCUCGUAGUGUAAACAUGAGGAUCACCCAUGUGCUCGCCCUGGAUCUUUGGAUCGCAGGAA [Tibeon] (puzzle: Sensor for hsa-mir-208a) |  |  |  | 353 nM | 124 nM | 407 nM
AACAUACAUGAGGAUCACCCAUGUUCCGGCAGGACAGGAUAUACAUCGAAAGUGUUAUAAGUAGAAGGGUCAUAAA [JR_SS001_Sub012] (Eterna round: R96, puzzle: Same State 1) | 63.4 nM | 56.6 nM | 79.8 nM |  |  | 
GGAGCCUGCACUGAGGAUAUUCAUAGUGUAACAUGAGGAUCACCCAUGUGUCGCCGUAGCGACUGGGAGAAGGCAGUGCGGCUCG [JL-ss2-3.06 ViennaUCT mod] (puzzle: Same State 2) |  |  |  | 38.4 nM | 180 nM | 325 nM

Sequence | apparent KD of MS2 coat protein (input ligand: FMN 200 uM) | apparent KD of MS2 coat protein [1] | apparent KD of MS2 coat protein (input ligand: none) | apparent KD of MS2 coat protein [2] | apparent KD of MS2 coat protein [3] | apparent KD of MS2 coat protein [4]
AUUACUAACAUAGGAUAUCAUGCGAAAAUUGCGUGAGAAGGGUGGACACUGUCUUUCUCGGAGUACAUGAGGAUCACCCAUGUG [SameState NG1 #68] (Eterna round: R96, puzzle: Same State NG 1) | 564 nM | 138 nM | 147 nM |  |  | 
GUGGUCAGACAUGAGGAUCACCCAUGUGGAAUAAAUAACGGACAGGAUAUAGAAUAUAGGAUAUACUAGAAGGGUUGAUUGGUG (Eterna round: R96, puzzle: Same State NG 3) |  | 45.1 nM |  |  |  | 
AACAAUCUAUCUGAGGAUAUCAUGAAAUAAACAUGAGGAUCACCCAUGUGCAUGAAAACUGCAUAUGAGAAGGCAGAUAGAUUGA [salish99_ss2_r3_038] (puzzle: Same State 2) |  |  |  | 54.8 nM | 415 nM | 472 nM
UAAACUUCUUUUAGUGUGUUGCGAGUGAAACAUGAGGAUCACCCAUGUAAAGGAUUGUGGUAUUUUGUUCGUCUUAA [JR_SHM208A_Sub075] (puzzle: Sensor for hsa-mir-208a) |  |  |  | 75.2 nM | 41.4 nM | 98.8 nM
GCGAGCGUACUUGCUACAUGAGGAUCACCCAUGUUCGUUGGACAGGAUAUGGUACCGUUUCGGUACCAGAAGGGUUCAUCAUGU [JL SSNG3 3.75] (Eterna round: R96, puzzle: Same State NG 3) | 356 nM | 188 nM | 278 nM |  |  | 
ACAUGAGGAUCACCCAUGUAACCAAGAGAGAGAGCACGGACGCAGGAUAUGCGGCGACGAGCGGAGCAGAAGGGCGCCUCAUAU [Alacarus NG 3 Attempt 1] (Eterna round: R96, puzzle: Same State NG 3) | 79.3 nM | 52 nM | 109 nM |  |  | 
GAGUAGGAGUUACAGGAUAUAUGGAGGUGGACAUGAGGAUCACCCAUGUGAGAGAUGAGAGGAGGAUAGAAGGGUAAGGGAGUAA [JR_SS2_Sub029] (puzzle: Same State 2) |  |  |  | 189 nM | 153 nM | 486 nM
UCUUGGUUUUUGCUCGUUUUUUGUGUUGAACAUGAGGAUCACCCAUGUAUUGUACGGUCCAAUUUAAUAGUGGUCCG [JMF 24] (puzzle: Sensor for hsa-mir-208a) |  |  |  | 25.5 nM | 15.3 nM | 28 nM
AGCUAUUAAUCAGGAUAUGGUCACAUGAGGAUCACCCAUGUGUAGAUGAUAAAAUGUGGUCUACACUAGAAGGGAUUGCUAACA [SameState NG2 #60] (Eterna round: R96, puzzle: Same State NG 2) | 524 nM | 216 nM | 236 nM |  |  | 
UGGCUCAGACUAGGAUAUGAUCAUGGCGCUUCGGCGCAUACAUGAGGAUCACCCAUGUAAAGUGAUCAGAAGGAGUCUGAGCCU [SSNG2/7-C3] (Eterna round: R96, puzzle: Same State NG 2) | 14.2 nM | 10.6 nM | 19.7 nM |  |  | 
GGUAAACAUGAGGAUCACCCAUGUAAUAUAAUGGGAGGAUAUCUGAAUUAAUUAAAUUAAGGAGAAGGCCUAAUGU [Mat - Same State 1 - Mod of Eli - D50] (puzzle: Same State 1) |  |  |  | 65.5 nM | 462 nM | 410 nM
AUUAAACAUGAGGAUCACCCAUGUCAACUAAGUCGAGGAUAUGGGCAAAUAAAAUAAGAACCAGAAGGCGAAUAAU [salish99_ss1_r3_074] (puzzle: Same State 1) |  |  |  | 55.9 nM | 347 nM | 260 nM
CAGCGCUGUCGAGAGGAUAUGCGGUGAUGGACAUGAGGAUCACCCAUGUUAGCGACAGCAUCACGGCAGAAGGCUCUACCCGCUG [Soteed Omei mod 44] (puzzle: Same State 2) |  |  |  |  | 10.6 nM | 
UGCUAGUGGGUAGGAUAUUUAGGAUAUGGGAAAGACUAAGUCUGUAGGUCACCUAACCCAGAAGGAGAGAAGGACCCUUCAGCU [pwkr ssNG2 2FMN + F9.28] (Eterna round: R96, puzzle: Same State NG 2) | 1660 nM | 13.9 nM | 38.9 nM |  |  | 
UGAACCGUCACAGGAUAUCAUGCGAAAAUUGCGUGAGAAGGGUGGAUGUUGUGUUCAAAGAUGUACAUGAGGAUCACCCAUGUU [SameState NG1 #47] (Eterna round: R96, puzzle: Same State NG 1) | 61 nM | 85.7 nM | 170 nM |  |  | 
